This is an account of results in patent US20200369754A1 (published 2020).

The target in the test is T1, Tau peptide A6940 (biotin (bound via biotin to a streptavidin biosensor in the Octet assay; position of the biotin not stated)).
T1 peptide: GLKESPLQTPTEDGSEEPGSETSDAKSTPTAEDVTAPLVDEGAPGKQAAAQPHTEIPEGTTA
The test can be described thus: ITC. A general note: ITC needs no label: the signal is the heat of the interaction.

B1: CBTAU-28.1 (S32R[VL];E35K[VL]) (antibody, V domains shown)
VH: QVQLQQSGAEVKKPGESLKISCEASGYSFTNYWIGWVRQMPGKGLEWMGIIYPGDSDTRYSPPFQGQVTITADRSITTAYLEWSSLKASDTAMYYCARVGRPSKGGWFDPWGQGTLVTVSS
VL: DIQMTQSPDSLAVSLGERATINCESSQTLLYRSNKKNYLAWYQQKPGQPPKLLISWASTPESGVPDRFSGSGSGTSFTLTISSLQAEDVAVYYCQQYYNSPYTFGQGTRLEIK
Broadly, the Kd is a measure of binding affinity in units of concentration. A lower Kd goes with higher affinity. On to B1, for which the dissociation constant (Kd) was 220 nM.
